Source: US20210364527A1 (QUANTUM SI, published 2021)
Like-named read-outs stand apart in the source and are kept apart here.

B1: PS424 (other)
chain: MSVETIEKRSTTRKLAPQYRVLLHNDDYNSMEYVVQVLMTSVPSITQPQAVNIMMEAHNSGLALVITCAQEHAEFYCETLKGHGLSSTIEPD
B2: PS576 (other)
chain: MASTQTPDLNEITEESTKSTGGPWRVVLWDDNEHTYEYVIEMLVEICMMTVEKAFLHAVQVDKEKRTVDFSGELEHAEHVQERILNYGADPRMSNSKGSMSATLER
B3: PS423 (other)
chain: MAPTPAGAAVLDKQQQRRHKHASRYRVLLHNDPVNTMEYVVESLRQVVPQLSEQDAIAVMVEAHNTGVGLVIVCDIEPAEFYCEQLKTKGLTSSIEPED
B4: PS374 (other)
chain: MRWEDPLAAEPVTPGVAPVVEEETDAAVETPWRVILYDDDIHTFEEVILQLMKATGCTPEQGERHAWTVHTRGKDCVYQGDFFDCFRVQGVLREIQLVTEIEG
B5: PS389 (other)
chain: MLNSAAFKAASASPVIAPERSGQVTQKPYPTYKVIVLNDDFNTFQHVHDCLVKYIPGMTSDRAWQLTHQVHNDGQAIVWVGPQEQAELYHQQLSRAGLTMAPIEAA
B6: PS568 (other)
chain: MTTPSLPTRETEVEERTEVEPERLYHLVLLDDDQHSYQYVIEMLASIFGYGSEKAWTLARIVDTEGRAILETASHAQCERHQSQIHAYGADSRIPTSVGSMSAVIEEAGTPPQT
B7: PS569 (other)
chain: MYSKNQIKIYCSEDDKGQTATPLLEKKPKFAPLYHVILWDDNTHTYEYVIKLLMSLFRMTFEKAYQHTLEVDKKGRTICITTHLEKAELKQEQISNFGPDILMQNSKGPMSATIEPAN
B8: PS553 (other)
chain: MPASASAVTEPPVSLPEAAAPRPKDRPKRQPRYHVILWNDDDHTYQYVVAMLRQLFGHPPEKGFTLAKQVDKDGRVVVLTTTKEHAELKRDQIHAFGADRLLARSKGSMSASIEPEASTG
B9: PS559 (other)
chain: MNQAAISPNPDIKPNPSTHKKRASQRQPRYHVILWNDNDHTYHYVVTMLQKLFGHPPRTGIKMATEVDKKGKVIVLTTSREHAELKRDQIHAFGADKLIRRSKGAMAASIEPES
B10: PS398 (other)
chain: MPLKAQNRSIVGRRDEWPPPTTQSSSETKSESKRVSDTGADTKRKTKTVPKVEKPRLYKVILVNDDYTPREFVLVVLKAVFRMSEDQGYKVMITAHQKGSCVVAVYTRDIAETKAKEAVDLAKEIGFPLMFRTEPEE
B11: PS392 (other)
chain: MSVEIIEKRSTVRKLAPRYRVLLHNDDFNPMEYVVQTLMATVPSLTQPQAVNVMMEAHTNGMGLVIVCALEHAEFYAETLNNHGLGSSIEPDD
B12: PS571 (other)
chain: MTSSGASQPSILEETERKPRLSDGPWKVVLWDDDFHTYEYVIEMLMDVCQMPWEKAFQHAVEVDTRKKTIVFFGELEHAEFVHERILNYGPDPRMGTSKGSMTATLEK
B13: PS566 (other)
chain: MSSPSSLDDVQVSTSRAKPANETRTRKQPPYAVIVENDDHHTFLYVIEALMKVCGHAPEKGFVLAQQIHTQGKAMVWSGTLELAELKRDQLRGFGPDNYAPRPVTFPLGVTIEPLP
B14: PS397 (other)
chain: MSDNEVAPKRKTRVKPKLERPRLYKVILVNDDYTPRDFVVMVLKAIFRMSEEAGYRVMMTAHKLGTSVVVVCARDIAETKAKEATDLGKEAGFPLMFTTEPEE
B15: PS555 (other)
chain: MADSAQTGVAEPIQETLRRRKLRDDRRPKRQPPYHVILWNDNDHTYAYVVVMLMQLFGYPAEKGYQLASEVDTQGRAVVLTTTKEHAELKRDQIHAYGKDGLIEKCKGSMWATIEPAPGE
B16: PS390 (other)
chain: MLSIAAVTEAPSKGVQTADPKTVRKPYPNYKVIVLNDDFNTFQHVSSCLLKYIPGMSEARAWELTNQVHFEGLAVVWVGPQEQAELYYAQLKNAGLTMAPPEPA
B17: PS565 (other)
chain: MSEFDHEHSGDTSVADPIVTTKTAPKPQKHAENETETRRQPPYNVIILNDEEHTFDYVIELLCKVFRHSLATAQELTWRIHLTGRAVVLTTHKELAELKRDQVLAYGPDPRMSVSKGPLDCFIEPAPGG
B18: PS414 (other)
chain: MQAAGNEPPDPQNPGDVGNGGDGGNQDGSNTGVVVKTRTRTRKPAMYKVLMLNDDYTPMEFVVHVLERFFQKNREEATRIMLHVHRRGVGVCGVYTYEVAETKVTQVMDLARQNQHPLQCTIEKE
B19: PS547 (other)
chain: MGFPTDFRQSIEISTPLGSQQPRFSNASSEPALADPVLVINPRIQPRYHVILLNDDDHTYRYVIEMMLIVFGHPPEKGFLIAKEVDKAGRAICLTTSLEHAEFKQEQVHAYGADPYFGPKCKGSMTAVLEPAE
B20: PS560 (other)
chain: MTETITTPAERTQTQAEPRSDRAWLWNVVLLDDDEHTYEYVIRMLHTLFGMPVERAFRLAEEVDARGRAVVLTTHKEHAELKRDQVHAFGKDALIASCAGSMSAVLEPAECGSDDED
B21: PS554 (other)
chain: MSDSASATVEVQADPPADATARSQPTPARSTGSKPKRQPRYHVVLWNDDDHTYEYVIAMLRRLFGIEPEKGFRIAEEVDQSGRAVVLTTTREHAELKRDQIHAFGADRLLARSKGSMSASIEPEA
B22: PS388 (other)
chain: MVTTLSADVYGMATAPTVAPERSNQVVRKTYPNYKVIVLNDDFNTFQHVAECLMKYIPGMSSDRAWDLTNQVHYEGQAIVWVGPQEPAELYHQQLRRAGLTMAPLEAA
B23: PS404 (other)
chain: MPVSVTAPQTKTKTKPKVERPKLYKVILVNDDFTPREFVVRVLKAEFRMSEDQAAKVMMTAHQRGVCVVAVFTRDVAETKATRATDAGRAKGYPLLFTTEPEE

How the values were obtained:
Assay in all cases: BLI heatmap
[1] = target: T1, VA peptide VAKLDEESILKQK (XAKLDEESILKQK, X = V)
T1 construct: Immobilized on the biolayer interferometry sensor
T1 peptide: VAKLDEESILKQK

[2] = target: T2, LA peptide LAKLDEESILKQK (XAKLDEESILKQK, X = L)
T2 construct: Immobilized on the biolayer interferometry sensor
T2 peptide: LAKLDEESILKQK

[3] = target: T3, IA peptide IAKLDEESILKQK (XAKLDEESILKQK, X = I)
T3 construct: Immobilized on the biolayer interferometry sensor
T3 peptide: IAKLDEESILKQK

[4] = target: T4, F peptide FAKLDEESILKQK (XAKLDEESILKQK, X = F)
T4 construct: Immobilized on the biolayer interferometry sensor
T4 peptide: FAKLDEESILKQK

[5] = target: T5, W peptide WAKLDEESILKQK (XAKLDEESILKQK, X = W)
T5 construct: Immobilized on the biolayer interferometry sensor
T5 peptide: WAKLDEESILKQK

[6] = target: T1, VA peptide VAKLDEESILKQK …
[7] = target: T2, LA peptide LAKLDEESILKQK …
[8] = target: T3, IA peptide IAKLDEESILKQK …
[9] = target: T4, F peptide FAKLDEESILKQK (XAKLDEESILKQK, …)

Row | Binder | binding result [1] | binding result [2] | binding result [3] | binding result [4] | binding result [5] | binding result [6] | binding result [7] | binding result [8] | binding result [9]
1 | B1 | no binding | no binding | no binding | binds | binds | – | – | – | –
2 | B2 | – | – | – | – | – | no binding | no binding | no binding | no binding
3 | B3 | no binding | no binding | no binding | binds | binds | – | – | – | –
4 | B4 | no binding | – | no binding | binds | binds | – | – | – | –
5 | B5 | no binding | binds | no binding | – | no binding | – | – | – | –
6 | B6 | – | – | – | – | – | binds | binds | binds | –
7 | B7 | – | – | – | – | – | no binding | – | no binding | no binding
8 | B8 | – | – | – | – | – | binds | binds | binds | no binding
9 | B9 | – | – | – | – | – | binds | binds | binds | –
10 | B10 | no binding | no binding | no binding | binds | binds | – | – | – | –
11 | B11 | no binding | no binding | no binding | binds | – | – | – | – | –
12 | B12 | – | – | – | – | – | binds | binds | binds | no binding
13 | B13 | – | – | – | – | – | – | binds | binds | binds
14 | B14 | no binding | no binding | no binding | binds | binds | – | – | – | –
15 | B15 | – | – | – | – | – | no binding | binds | binds | –
16 | B16 | no binding | binds | no binding | binds | no binding | – | – | – | –
17 | B17 | – | – | – | – | – | – | binds | binds | binds
18 | B18 | no binding | – | no binding | binds | binds | – | – | – | –
19 | B19 | – | – | – | – | – | no binding | – | – | no binding
20 | B20 | – | – | – | – | – | – | binds | binds | no binding
21 | B21 | – | – | – | – | – | binds | binds | binds | no binding
22 | B22 | no binding | binds | no binding | – | no binding | – | – | – | –
23 | B23 | no binding | no binding | no binding | binds | binds | – | – | – | –
